Patent US20260250320A1, “LIPIDATED PEPTIDE INHIBITORS OF INTERLEUKIN-23 RECEPTOR” (Janssen Pharmaceutica NV, priority 2023, published 2026)
*1 amine or outer side, *2 acyl side, *3 side chain or, on linkers, in order; H or OH if unused. Where a SMILES comes first, the peptide text is derived from it. Bridges are numbered along the chain shown (N, C = ends). Primed or numbered codes have the meaning given here. Where no end group is shown, it is not given here. Side-chain parts run from the residue outwards. [ ]: non-standard residue; d: D form. The star is where a group is joined. code d = side-chain group of K(d): lysine given as (2R)-2-(4-((5-amino-5-carboxypentyl)amino)-4-oxobutanamido)-3-carboxy-N,N,N-trimethylpropan-1-aminium, C[N+](C)(C)C[C@@H](CC(=O)O)NC(=O)CCC(=O)*; code d″ = lysine side-chain amide of a carnitine-succinyl group ((2R)-3-carboxy-N,N,N-trimethylpropan-1-aminium amide; X5 = O=C(O)CCCCCCCCCCCCCCCCC(=O)N[C@@H](CCC(=O)NC(=O)*)C(=O)O; PEG2′ = PEG2 spacer unit (not further defined); Trp(7-Me) = Cc1cccc2c(C[C@H](N)C(=O)O)c[nH]c12; γGlu = O=C(O)[C@H](CCC(=O)[*:2])N[*:1]; 2Nal = N[C@@H](Cc1ccc2ccccc2c1)C(=O)O; AEF = NCCOc1ccc(C[C@H](N)C(=O)O)cc1; X2 = C[N+](C)(C)C[C@@H](CC(=O)O)N*; 3Pal = N[C@@H](Cc1cccnc1)C(=O)O; succiniccarn = not defined here; NMeK = CN[C@@H](CCCCN)C(=O)O; Pen = CC(C)(S)[C@H](N)C(=O)O; Suc = O=C(CCC(=O)[*:2])[*:1]; PEG2(3) = not defined here; PEG2″ = PEG2 spacer unit; dAEF′ = not defined here; Thp = NC1(C(=O)O)CCOCC1; AEEA = NCCOCCOCC(=O)O; Sar = CNCC(=O)O

T1: IL-23R (Homo sapiens, UniProt Q5VWK5)
T1 construct: HEK293 cells containing IL-23R, IL-12Rβ1 and a firefly luciferase reporter gene driven by a STAT-inducible promoter (Promega); host or cells: HEK293
T1 sequence (Q5VWK5 24-629): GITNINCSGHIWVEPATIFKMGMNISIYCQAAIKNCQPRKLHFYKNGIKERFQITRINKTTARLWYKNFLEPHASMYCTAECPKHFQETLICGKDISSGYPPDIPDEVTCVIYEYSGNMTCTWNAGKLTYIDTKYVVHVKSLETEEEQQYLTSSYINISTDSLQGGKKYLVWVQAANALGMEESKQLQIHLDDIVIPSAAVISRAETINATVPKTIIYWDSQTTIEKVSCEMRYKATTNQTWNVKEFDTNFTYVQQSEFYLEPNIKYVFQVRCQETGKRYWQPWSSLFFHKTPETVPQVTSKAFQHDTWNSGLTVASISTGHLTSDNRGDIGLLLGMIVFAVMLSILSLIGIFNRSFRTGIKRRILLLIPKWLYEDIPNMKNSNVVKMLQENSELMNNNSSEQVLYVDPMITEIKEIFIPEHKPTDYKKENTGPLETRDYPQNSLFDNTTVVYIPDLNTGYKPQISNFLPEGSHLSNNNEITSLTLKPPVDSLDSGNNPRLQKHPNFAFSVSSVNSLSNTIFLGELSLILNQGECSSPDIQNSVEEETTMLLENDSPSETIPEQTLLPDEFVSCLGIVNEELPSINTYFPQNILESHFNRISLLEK

T2: interleukin-23 receptor (IL-23R) (UniProt Q5VWK5 24-629, limits assumed)
T2 sequence (looked up): T1 sequence (Q5VWK5 24-629)

B1: SEQ ID NO: 2 (peptide)
peptide: XNTXXXXXXXNXXK
modifications: not fully specified; MeCO-Pen(3)-N-T-7MeW-K(Ac)-Pen(3)-AEF-2Nal-THP-K(Ac)-N-3Pya-Sar-K(PEG2NMePEG2NMegENMeC18Tetrazole)-CONH2
B2: SEQ ID NO: 16 (peptide)
peptide: Ac-[dR][Pen]NT[Trp(7-Me)]K(Ac)[Pen]X[2Nal][Thp]EN[3Pal][NMeK]-NH2
modifications: disulfide 2-7 (inferred); not fully specified (residues 8, 14); printed as MeCO-r-Pen(3)-N-T-7MeW-K(Ac)-Pen(3)-AEF(d)-2Nal-THP-E-N-3Pya-NMeK(PEG2PEG2gEC18OH)-CONH2
B3: SEQ ID NO: 17 (peptide)
peptide: Ac-K[Pen]NT[Trp(7-Me)]K(Ac)[Pen]X[2Nal][Thp]EN[3Pal][Sar]-NH2
modifications: disulfide 2-7 (inferred); not fully specified (residues 1, 8); printed as MeCO-k(PEG2PEG2gEC18OH)-Pen(3)-N-T-7MeW-K(Ac)-Pen(3)-AEF(d)-2Nal-THP-E-N-3Pya-Sar-CONH2
B4: SEQ ID NO: 18 (peptide)
peptide: succiniccarn-[dR][Pen]K([PEG2(3)-PEG2(3)-γGlu-C18OH])T[Trp(7-Me)]K(Ac)[Pen][AEF][2Nal][Thp]EN[3Pal][Sar]-NH2
modifications: disulfide 2-7 (inferred); reading uncertain; also: printed as succiniccarn-r-Pen(3)-K(PEG2PEG2gEC18OH)-T-7MeW-K(Ac)-Pen(3)-AEF-2Nal-THP-E-N-3Pya-Sar-CONH2
B5: SEQ ID NO: 19 (peptide)
peptide: Ac-[dR][Pen]NT[Trp(7-Me)]K[Pen][AEF][2Nal][Thp]EN[3Pal]X-NH2
modifications: disulfide 2-7 (inferred); not fully specified (residues 6, 14); printed as MeCO-r-Pen(3)-N-T-7MeW-K(PEG2PEG2gEC18OH)-Pen(3)-AEF-2Nal-THP-E-N-3Pya-NMeK(d)-CONH2
B6: SEQ ID NO: 20 (peptide)
peptide: succiniccarn-[dR][Pen]NT[Trp(7-Me)]K([PEG2′-PEG2′-γGlu-C18OH])[Pen][AEF][2Nal][Thp]EN[3Pal][Sar]-NH2
modifications: disulfide 2-7 (inferred); reading uncertain; also: printed as succiniccarn-r-Pen(3)-N-T-7MeW-K(PEG2PEG2gEC18OH)-Pen(3)-AEF-2Nal-THP-E-N-3Pya-Sar-CONH2
B7: SEQ ID NO: 23 (peptide)
peptide: Ac-[dR][Pen]NT[Trp(7-Me)]K(Ac)[Pen][dAEF′][2Nal][Thp]EN[3Pal][Sar]K([PEG2′-PEG2′-γGlu-C18OH])-NH2
modifications: disulfide 2-7 (inferred); reading uncertain; also: printed as MeCO-r-Pen(3)-N-T-7MeW-K(Ac)-Pen(3)-AEF(d)-2Nal-THP-E-N-3Pya-Sar-K(PEG2PEG2gEC18OH)-CONH2
B8: SEQ ID NO: 31 (peptide)
peptide: succiniccarn-[dR][Pen]NT[Trp(7-Me)]K(Ac)[Pen][AEF][2Nal][Thp]EN[3Pal][NMeK]([PEG2′-PEG2′-γGlu-C18OH])-NH2
modifications: disulfide 2-7 (inferred); reading uncertain; also: printed as succiniccarn-r-Pen(3)-N-T-7MeW-K(Ac)-Pen(3)-AEF-2Nal-THP-E-N-3Pya-NMeK(PEG2PEG2gEC18OH)-CONH2
B9: SEQ ID NO: 32 (peptide)
peptide: {C18OH-γGlu-PEG2′-PEG2′}-[dR][Pen]NT[Trp(7-Me)]K(Ac)[Pen][dAEF′][2Nal][Thp]EN[3Pal][Sar]-NH2
modifications: disulfide 2-7 (inferred); reading uncertain; also: printed as HOC18gEPEG2PEG2CO-r-Pen(3)-N-T-7MeW-K(Ac)-Pen(3)-AEF(d)-2Nal-THP-E-N-3Pya-Sar-CONH2
B10: SEQ ID NO: 36 (peptide)
peptide: Ac-[dR][Pen]NT[Trp(7-Me)]K([PEG2′-PEG2′-γGlu-C18OH])[Pen][dAEF′][2Nal][Thp]EN[3Pal][Sar]-NH2
modifications: disulfide 2-7 (inferred); reading uncertain; also: printed as MeCO-r-Pen(3)-N-T-7MeW-K(PEG2PEG2gEC18OH)-Pen(3)-AEF(d)-2Nal-THP-E-N-3Pya-Sar-CONH2
B11: SEQ ID NO: 45 (peptide)
peptide: [dR][Pen]NT[Trp(7-Me)]K(Ac)[Pen][AEF][2Nal][Thp]K(code d)N[3Pal][Sar]-NH2
modifications: disulfide 2-7 (inferred); not fully specified (N-terminus); printed as HOC18gEPEG2PEG2CO-r-Pen(3)-N-T-7MeW-K(Ac)-Pen(3)-AEF-2Nal-THP-K(d)-N-3Pya-Sar-CONH2
B12: SEQ ID NO: 49 (peptide)
peptide: succiniccarn-[dR][Pen]NT[Trp(7-Me)]K(Ac)[Pen][AEF][2Nal][Thp]K([PEG2″-PEG2″-γGlu-C18OH])N[3Pal][Sar]-NH2
modifications: disulfide 2-7 (inferred); reading uncertain; also: printed as succiniccarn-r-Pen(3)-N-T-7MeW-K(Ac)-Pen(3)-AEF-2Nal-THP-K(PEG2PEG2gEC18OH)-N-3Pya-Sar-CONH2
B13: SEQ ID NO: 50 (peptide)
peptide: XNTXXXXXXXNXXK
modifications: MeCO-Pen(3)-N-T-7MeW-K(Ac)-Pen(3)-AEF-2Nal-THP-K(d)-N-3Pya-Sar-K(PEG2PEG2gEC18OH)-CONH2
B14: SEQ ID NO: 54 (peptide)
peptide: succiniccarn-[dR][Pen]NT[Trp(7-Me)]K(Ac)[Pen][AEF][2Nal][Thp]EN[3Pal][Sar]K([PEG2″-PEG2″-γGlu-C18OH])-NH2
modifications: disulfide 2-7 (inferred); reading uncertain; also: printed as succiniccarn-r-Pen(3)-N-T-7MeW-K(Ac)-Pen(3)-AEF-2Nal-THP-E-N-3Pya-Sar-K(PEG2PEG2gEC18OH)-CONH2

Legend:
IL-23R = biological target: T1, IL-23R; assay: IL23R Reporter Assay; assay type: cell-based; settings: HEK293 cells containing IL-23R, IL-12Rβ1 and STAT-inducible firefly luciferase reporter; 10 ng/mL IL-23 (EC90); 5 h
Summary of the method: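 HEK293 cells carrying IL-23R, IL-12Rβ1 and a STAT-driven firefly luciferase reporter (4000 cells/well) received compound, then 10 ng/mL IL-23 solution (EC90), and were incubated for 5 h at 37° C. BioGlo luminescence was normalised to IL-23 alone (0%) and 30 μM control inhibitor (100%). IC50 came from a 4-parameter Hill fit.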

[1] = system: IL-23-stimulated phosphorylated STAT3 in peripheral blood mononuclear cells (PBMCs); assay: PBMC pSTAT3 Assay; assay type: cell-based; settings: PBMCs from healthy donors; 30 min preincubation with peptide; IL-23 5 ng/mL for 30 min; phospho-STAT3 by MSD
Summary of the method: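 Healthy-donor PBMCs expanded 4 days on anti-CD3 with 100 ng/mL IL-1β, starved ~4 h in RPMI-0.1% BSA, preincubated 30 min with peptide, then stimulated 30 min at 37 °C with 5 ng/mL IL-23. Lysate pSTAT3 measured by MSD phospho-STAT panel; IC50 derived.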

[2] = biological target: T2, interleukin-23 receptor (IL-23R); assay: cell-based or functional assay

Molecule | IC50 (IL-23R) [nM] | IC50 [1] [nM] | PBMC pSTAT3 IC50 [2] [nM]
CC(=O)NCCCC[C@@H]1NC(=O)[C@H](Cc2c[nH]c3c(C)cccc23)NC(=O)[C@H]([C@@H](C)O)NC(=O)[C@H](CC(N)=O)NC(=O)[C@@H](NC(=O)[C@@H](CCCNC(=N)N)NC(=O)CCC(=O)N[C@H](CC(=O)O)C[N+](C)(C)C)C(C)(C)SSC(C)(C)[C@@H](C(=O)N[C@@H](Cc2ccc(OCCNC(=O)COCCOCCNC(=O)COCCOCCNC(=O)NC(=O)CC[C@H](NC(=O)CCCCCCCCCCCCCCCCC(=O)O)C(=O)O)cc2)C(=O)N[C@@H](Cc2ccc3ccccc3c2)C(=O)NC2(C(=O)N[C@@H](CCC(=O)O)C(=O)N[C@@H](CC(N)=O)C(=O)N[C@@H](Cc3cccnc3)C(=O)N(C)CC(N)=O)CCOCC2)NC1=O [compound 11, succiniccarn-r-Pen(3)-N-T-7MeW-K(Ac)-Pen(3)-AEF(PEG2PEG2gEC18OH)-2Nal-THP-E-N-3Pya-Sar-CONH2] ({X2-Suc}-[dR][Pen]NT[Trp(7-Me)]K(Ac)[Pen][AEF]([AEEA-AEEA-X5])[2Nal][Thp]EN[3Pal][Sar]-NH2; disulfide 2-7) | 50 to 500 | 0.5 to 5 | –
B1 | – | – | < 0.5
B2 | – | – | < 0.5
B3 | – | – | < 0.5
B4 | – | – | < 0.5
B5 | – | – | < 0.5
B6 | – | – | < 0.5
B7 | – | – | < 0.5
B8 | – | – | < 0.5
B9 | – | – | < 0.5
B10 | – | – | < 0.5
Ac-[dR][Pen]NT[Trp(7-Me)]K(Ac)[Pen][AEF][2Nal][Thp]K(code d)N[3Pal][NMeK]([PEG2′-PEG2′-γGlu-C18OH])-NH2 (disulfide 2-7 (inferred)) [SEQ ID NO: 41] | – | – | < 0.5
B11 | – | – | < 0.5
Ac-[dR][Pen]NT[Trp(7-Me)]K(code d)[Pen][AEF][2Nal][Thp]K([PEG2′-PEG2′-γGlu-C18OH])N[3Pal][Sar]-NH2 (disulfide 2-7 (inferred)) [SEQ ID NO: 48] | – | – | < 0.5
B12 | – | – | < 0.5
B13 | – | – | < 0.5
Ac-[dR][Pen]NT[Trp(7-Me)]K(code d″)[Pen][AEF][2Nal][Thp]EN[3Pal][Sar]K([PEG2″-PEG2″-γGlu-C18OH])-NH2 (disulfide 2-7 (inferred)) [SEQ ID NO: 52] | – | – | < 0.5
Ac-[dR][Pen]K(code d″)T[Trp(7-Me)]K(Ac)[Pen][AEF][2Nal][Thp]EN[3Pal][Sar]K([PEG2″-PEG2″-γGlu-C18OH])-NH2 (disulfide 2-7 (inferred)) [SEQ ID NO: 53] | – | – | < 0.5
B14 | – | – | < 0.5
